Columns and labels:
pancreatic acinar cells = assay: Amylase secretion from isolated pancreatic acinar cells; assay type: cell-based, mouse; settings: 30 pM CCK or 1 μM carbachol, n=12, means±s.e.m.
Method: Pancreatic acini were prepared by collagenase digestion method. Amylase secretion experiments were performed according to Ohnishi et al. (28) with slight modifications. Briefly, isolated acini were suspended in an incubation buffer [consisting of 10 mM HEPES (pH 7.4), 127 mM NaCl, 4.7 mM KCl, 0.6 mM MgCl2, 1.3 mM CaCl2, 0.6 mM Na2HPO4, 2.0 mg/ml glucose, Eagle's MEM amino acids supplement, 2 mM L-glutamine, 1% BSA, 0.01% soybean trypsin inhibiter] as previously described (28) and preincubated at 37° C. for 30 minutes. After preincubation, the acini were centrifuged, resuspended in fresh incubation buffer, and incubated at 37° C. in the presence or absence of 30 pM CCK or 1 μM carbachol. Amylase released into the supernatant during incubation was quantified using Amylase B-test WAKO (WAKO PURE CHEMICAL INDUSTRIES). Amylase secretion was normalized as the amount released into the medium relative to the total amylase content in the pancreatic acinar cells (expressed as % amylase release).

Rab3 isoforms = assay: In vitro binding assay (cosedimentation, GST-Noc2 on glutathione beads); settings: lysates of COS-1 cells transfected with FLAG-tagged Rab3 isoforms; GDP-βS or GTP-γS
Method: Pancreatic islets were isolated by collagenase digestion method in a conventional manner (27). The pancreatic islets were cultured for 48 hours in RPMI1640 medium in the presence or absence of PTX (30 ng/ml). Batch incubation was performed as previously described (27). Insulin released into the medium was measured by radioimmunoassay (EIKEN CHEMICAL). Recombinant adenoviruses carrying either LacZ, Noc2 wt (wild-type), or Noc2AAA (mutant) cDNA were generated according to the manufacturer's instructions (STRATAGENE). For preparation of Noc2AAA, Trp-Phe-Tyr (residues 154–156) were replaced with three alanine residues as previously described (24). […] Lysate from COS-1 cells transfected with a Flag-tagged Rab3 isoforms was evaluated for binding to the GST-Noc2 wild-type (Noc2 wt) or the GST-Noc2 mutant (Noc2AAA) in the presence of GTP-γS.
Wild type Noc2 and mutant Noc2 (Noc2AAA), both full-length, were expressed as GST-fusion proteins and purified according to the manufacturer's instructions (AMERSHAM). […] Briefly, lysates from COS-1 cells transfected with FLAG-tagged Rab3 isoforms and Rab5 were assessed for binding to GST-Noc2 immobilized on glutathione beads in the presence of GDP-βS or GTP-γS. Rab3 isoforms and Rab5 and GST-Noc2 were detected by immunoblotting with anti-Flag antibody or immunoglobulin G-purified antibody against rat Noc2.

Rab5A = molecular target: T1, Rab5A (Homo sapiens, UniProt P20339); assay: as above; settings: lysates of COS-1 cells transfected with FLAG-tagged Rab5; GDP-βS or GTP-γS
T1 construct: Full-length Rab3A, B, C and D and Rab5 cDNAs were subcloned into pFLAG-CMV-2 (SIGMA); expressed in transfected cells; host or cells: COS-1 cells (lysate)
T1 sequence (P20339 1-215): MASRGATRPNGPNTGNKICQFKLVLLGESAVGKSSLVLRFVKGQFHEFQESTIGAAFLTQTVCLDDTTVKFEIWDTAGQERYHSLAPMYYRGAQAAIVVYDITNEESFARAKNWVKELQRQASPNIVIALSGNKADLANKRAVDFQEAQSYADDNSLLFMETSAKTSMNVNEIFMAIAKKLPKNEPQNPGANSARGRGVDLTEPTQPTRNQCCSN
Method: Wild type Noc2 and mutant Noc2 (Noc2AAA), both full-length, were expressed as GST-fusion proteins and purified according to the manufacturer's instructions (AMERSHAM). Full-length Rab3A, B, C and D and Rab5 cDNAs were subcloned into pFLAG-CMV-2 (SIGMA). For cosedimentation assays, COS-1 cells were transfected with each of the plasmids using LipofectAMINE (INVITROGEN). Following the transfection, the cells were sonicated in a buffer [20 mM HEPES, pH 7.4, 200 mM NaCl, 1 mM dithiothreitol, 5 mM MgCl2, 1 mM ATP and 0.26% (v/v) CHAPS]. In vitro binding assay was performed as previously described (15). Briefly, lysates from COS-1 cells transfected with FLAG-tagged Rab3 isoforms and Rab5 were assessed for binding to GST-Noc2 immobilized on glutathione beads in the presence of GDP-βS or GTP-γS. Rab3 isoforms and Rab5 and GST-Noc2 were detected by immunoblotting with anti-Flag antibody or immunoglobulin G-purified antibody against rat Noc2.

[1] = pancreatic acini of Noc2−/− mice, basal level 4.9±0.5%
[2] = pancreatic acini of wild-type mice, basal level 5.6±0.9%

Molecule	% amylase released of total amylase content (pancreatic acinar cells; [1]) [%]	% amylase released of total amylase content (pancreatic acinar cells; [2]) [%]	binding to Rab3 isoforms (Rab3A–D) (Rab3 isoforms)	binding to Rab5A (Rab5A)
C[N+](C)(C)CCOC(N)=O [carbachol, reference compound]	6.2±0.5	15.6±0.8		
cholecystokinin (peptide, UniProt P06307 21-115, looked up, Cholecystokinin) Cholecystokinin: QPVPPADPAGSGLQRAEEAPRRQLRVSQRTDGESRAHLGALLARYIQQARKAPSGRMSIVKNLQNLDPSHRISDRDYMGWMDFGRRSAEEYEYPS	5.8±0.5	13.0±0.7		
Noc2: full-length wild type Noc2 expressed as GST-fusion protein (protein, left off: a dimerising Fc or GST, full-length wild type Noc2 expressed as GST-fusion protein) MADTIFSSGNDQWVCPNDRQLALRAKLQTGWSVHTYQTEKQRRSQCLSPGELEIILQVIQRAERLDILEQQRIGRLVERLETMQRNVMGNGLSQCLLCGEVLGFLGSSSVFCKDCRKKVCTKCGIEASPGQKRPLWLCKICSEQREVWKRSGAWFYKGLPKYILPLKTPGRADDPHFRPLPVEPTETQPPSAETSRVYTWARGRVVSSDSDSDSDLSSSSLEDRPLPSGVKGTKGDKPRGDSGASMESPRLGPARPPSHLSGSQSSLGSEAGTGATEPQGGTPAQPEPRVPGKRHTWATPRY			binds to all of the isoforms of Rab3 in a GTP-dependent manner	not to Rab5A
Noc2AAA: mutant Noc2, Trp-Phe-Tyr (residues 154–156) replaced with three alanine residues, GST-fusion protein (protein) MADTIFSSGNDQWVCPNDRQLALRAKLQTGWSVHTYQTEKQRRSQCLSPGELEIILQVIQRAERLDILEQQRIGRLVERLETMQRNVMGNGLSQCLLCGEVLGFLGSSSVFCKDCRKKVCTKCGIEASPGQKRPLWLCKICSEQREVWKRSGAAAAKGLPKYILPLKTPGRADDPHFRPLPVEPTETQPPSAETSRVYTWARGRVVSSDSDSDSDLSSSSLEDRPLPSGVKGTKGDKPRGDSGASMESPRLGPARPPSHLSGSQSSLGSEAGTGATEPQGGTPAQPEPRVPGKRHTWATPRY			does not bind any isoform of Rab3	
